{
  "source": "paper PMC7089733",
  "biological_target": "L7Ae;Nop5;fibrillarin L113K;V223E ((printed as Pf);(printed as Pf);(printed as Pf)) (UniProt Q8U160+Q8U4M1+Q8U4M2)",
  "assay": "NMR PRE + SAXS/SANS ensemble",
  "settings": "half-loaded mono-RNP, 50 mM NaPi, 500 mM NaCl, pH 6.6, 100% D2O (NMR), 55 C, SANS in 42%:58% D2O:H2O, substrate at 1.2-1.25 molar equivalents, scale: % [on,off] conformers",
  "data": [
    {"sequence": "GCGAGCAAUGAUGAGUGAUGGGCGAACUGAGCUCGAAAGAGCAAUGAUGACGGAGGUGAUCACUGAGCUCGC / GUAGAUCACCUCCG [st-sR26 + substrate D]", "values": [
      {"measurement": "binding signal", "setting": "ddG vs substrate D' 0.86 +/- 0.55 kcal/mol", "result": 34}
    ]},
    {"sequence": "GCGAGCAAUGAUGAGUGAUGGGCGAACUGAGCUCGAAAGAGCAAUGAUGACGGAGGUGAUCACUGAGCUCGC / GCUUCGCCCAUCAC [st-sR26 + substrate D']", "values": [
      {"measurement": "binding signal", "result": 66}
    ]}
  ]
}
